Reference: patent publication US11821042B2, “Targeting chromosomal instability and downstream cytosolic DNA signaling for cancer treatment” (Cornell University, priority 2017, dated 2023)

Experiments:
H2030 cells = assay: Chromosome missegregation in anaphase cells; assay type: cell-based, human; conditions: overexpression in H2030 cells
Protocol: (§1) Primary tumor specimens were analyzed from 60 patients with head and neck squamous cell carcinoma (HNSCC) (Chung et al. Cancer Cell 5, 489-500 (2004)). Forty patients had Hematoxylin and Eosin-stained (H&E) primary tumor samples of sufficient quality for high-resolution microscopy analysis. Analysis was restricted to cells fixed while undergoing anaphase as previously described (Bakhoun et al. Clin. Cancer Res. 17, 7704-7711 (2011); Zaki et al. Cancer 120, 1733-1742 (2014)). Chromosome missegregation was defined by hematoxylin staining presence in between the remaining segregating chromosomes during anaphase and it was reported as the percentage of cells undergoing anaphase with evidence of chromosome missegregation. Clinical lymph node status was defined by clinical examination or radiographic evidence of lymph node tumor involvement (Chung et al. Cancer Cell 5, 489-500 (2004)).
(§2) Cell fixation and antibody staining were performed as described (Bakhoun et al. Nat Commun 6, 5990 (2015)). Briefly, cells were fixed with ice-cold (−30 C) methanol for 15 minutes—when staining for centromeres, centrosomes, cGAS, Vimentin, β-actin, or α-tubulin—or 4% paraformaldehyde—when staining for RelB, p65, IRF3, ssDNA, dsDNA, CoxIV, or β-catenin. Subsequently, cells were permeabilized using 1% triton for 4 minutes. See Table 1 for antibody information.
(§3) To determine whether chromosomal instability is causally involved in metastasis, we devised a genetic approach (Bakhoun et al., Nat. Cell Biol. 11, 27-35 (2009); Bakhoun et al., Nat Commun 6, 5990 (2015)) to alter the rate of chromosome missegregation in transplantable tumor models of human TNBC (MDA-MB-231) and lung adenocarcinoma (H2030). […] These cells, with unperturbed chromosome segregation rates, are referred to a as CIN-medium cells. […] As an important control, Kif2a was overexpressed, Kif2a is a third member of the microtubule-depolymerizing kinesin-13 proteins that lacks any kinetochore or centromere localization domains (Ems-McClung et al. Semin. Cell Dev. Biol. 21, 276-282 (2010)).

MDA-MB-231 cells [1] = assay: Chromosome missegregation in anaphase cells; assay type: cell-based, human; conditions: overexpression in MDA-MB-231 cells
Protocol: as §1, §2, §3

MDA-MB-231 cells [2] = assay: Intracardiac injection metastasis model, bioluminescence imaging and disease-specific survival; assay type: in vivo, mice; conditions: intracardiac injection of MDA-MB-231 cells expressing the protein, FIG. 2E
Protocol: Animal experiments were performed in accordance with protocols approved by the Weill Cornell Medicine Institutional Animal Care and Use Committee. […] There was no need to randomize animals. Investigators were not blinded to group allocation. Intracardiac injection was performed as previously described (Chen et al. Nature 533, 493-498 (2016)). Briefly, cells were trypsinized and washed with PBS and a 1×10^5 cells (in 100 μl of PBS) were injected into the left cardiac ventricle of female athymic 6-7-week-old athymic nude (nu/nu) mice (Jackson Laboratory strain 002019). Mice were then immediately injected with D-luciferin (150 mgkg^−1) and subjected to bioluminescence imaging (BLI) using tan IVIS Spectrum Xenogen instrument (Caliper Life Sciences) to ensure systemic dissemination of tumor cells. Metastatic burden was measured at week 5 after injection using BLI and in the case of MDA-MB-231 mice BLI images were taken every 1-2 weeks for up to 17 weeks. BLI images were analyzed using Living Image Software v.2.50. Disease-specific survival endpoint was met when the mice died or met the criteria for euthanasia under the IACUC protocol and had radiographic evidence of metastatic disease. For Orthotopic tumor implantation, 2.5×10^5 cells in 50p of PBS were mixed 1:1 with Matrigel (BD Biosciences) and injected into the fourth mammary fat pad. Only one tumor was implanted per animal. Primary tumors were surgically excited when they reached ˜1.5 cm in the largest dimension and metastatic dissemination was assessed using BLI imaging at 1-week to 3-week intervals for up to 30 weeks. Distant metastasis-free survival endpoint was met when BLI signal was seen outside of site of primary tumor transplantation. To derive short-term culture from primary tumors and metastases, anesthetized animals (isofluorane) were imaged then sacrificed. Ex-vivo BLI was subsequently performed on harvested organs to define the precise location of the metastatic lesion. Primary tumors and metastases were subsequently mechanically dissociated and cultured in DMEM with selection media to select for tumor cells. […]

cGAS = cGAS localization to micronuclei by immunofluorescence; assay type: cell-based, human; conditions: Lamin B2 overexpression in dnMCAK cells
Protocol: as §2

cytosolic DNA = assay: Cytosolic dsDNA and ssDNA staining after selective plasma membrane permeabilization; assay type: cell-based, human; conditions: after overexpression of Dnase2
Protocol: as §2
For selective plasma membrane permeabilization used for cytosolic dsDNA and ssDNA staining, cells were treated with 0.02% saponin for 5 minutes after fixation. For single-stranded (Thermo Fisher FEREN0321) and double stranded (Life Technologies—EN0771)-specific nuclease treatment, cells were also permeabilized with 0.02% saponin for 2 minutes and treated with either nucleases for 10 minutes before fixation using 4% paraformaldehyde. TBS-BSA was used as a blocking agent during antibody staining. DAPI was added together with secondary antibodies. Cells were mounted with Prolong Diamond Antifade Mountant (Life Technologies—P36961).

Row | Molecule | chromosome segregation errors during anaphase (H2030 cells) | chromosome segregation errors during anaphase (MDA-MB-231 cells [1]) | disease-specific survival of mice (MDA-MB-231 cells [2]) | relative fraction of micronuclei with cGAS staining (cGAS) | cytosolic dsDNA staining signal (cytosolic DNA)
1 | Kif2a: third microtubule-depolymerizing kinesin-13 protein lacking kinetochore or centromere localization domains; control (protein, UniProt O00139 1-706, looked up) Kinesin-like protein KIF2A: MATANFGKIQIGIYVEIKRSDGRIHQAMVTSLNEDNESVTVEWIENGDTKGKEIDLESIFSLNPDLVPDEEIEPSPETPPPPASSAKVNKIVKNRRTVASIKNDPPSRDNRVVGSARARPSQFPEQSSSAQQNGSVSDISPVQAAKKEFGPPSRRKSNCVKEVEKLQEKREKRRLQQQELREKRAQDVDATNPNYEIMCMIRDFRGSLDYRPLTTADPIDEHRICVCVRKRPLNKKETQMKDLDVITIPSKDVVMVHEPKQKVDLTRYLENQTFRFDYAFDDSAPNEMVYRFTARPLVETIFERGMATCFAYGQTGSGKTHTMGGDFSGKNQDCSKGIYALAARDVFLMLKKPNYKKLELQVYATFFEIYSGKVFDLLNRKTKLRVLEDGKQQVQVVGLQEREVKCVEDVLKLIDIGNSCRTSGQTSANAHSSRSHAVFQIILRRKGKLHGKFSLIDLAGNERGADTSSADRQTRLEGAEINKSLLALKECIRALGRNKPHTPFRASKLTQVLRDSFIGENSRTCMIATISPGMASCENTLNTLRYANRVKELTVDPTAAGDVRPIMHHPPNQIDDLETQWGVGSSPQRDDLKLLCEQNEEEVSPQLFTFHEAVSQMVEMEEQVVEDHRAVFQESIRWLEDEKALLEMTEEVDYDVDSYATQLEAILEQKIDILTELRDKVKSFRAALQEEEQASKQINPKRPRAL | no effect | no effect | middle levels of survival |  | 
2 | Kif2b: kinesin-13 protein, human sequence SEQ ID NO:1, overexpressed in tumor cells (protein, listed as Homo sapiens) MASQFCLPESPCLSPLKPLKPHFGDIQEGIYVAIQRSDKRIHLAVVTEINRENYWVTVEWVEKAVKKGKKIDLETILLLNPALDSAEHPMPPPPLSPLALAPSSAIRDQRTATKWVAMIPQKNQTASGDSLDVRVPSKPCLMKQKKSPCLWEIQKLQEQREKRRRLQQEIRARRALDVNTRNPNYEIMHMIEEYRRHLDSSKISVLEPPQEHRICVCVRKRPLNQRETTLKDLDIITVPSDNVVMVHESKQKVDLTRYLQNQTFCFDHAFDDKASNELVYQFTAQPLVESIFRKGMATCFAYGQTGSGKTYTMGGDFSGTAQDCSKGIYALVAQDVFLLLRNSTYEKLDLKVYGTFFEIYGGKVYDLLNWKKKLQVLEDGNQQIQVVGLQEKEVCCVEEVLNLVEIGNSCRTSRQTPVNAHSSRSHAVFQIILKSGRIMHGKFSLVDLAGNERGADTTKASRKRQLEGAEINKSLLALKECILALGQNKPHTPFRASKLTLVLRDSFIGQNSSTCMIATISPGMTSCENTLNTLRYANRVKKLNVDVRPYHRGHYPIGHEAPRMLKSHIGNSEMSLQRDEFIKIPYVQSEEQKEIEEVETLPTLLGKDTTISGKGSSQWLENIQERAGGVHHDIDFCIARSLSILEQKIDALTEIQKKLKLLLADLHVKSKVE | significant suppression | significant suppression | most survival |  | 
3 | Lamin B2: mCherry-Lamin B2 overexpressed to stabilize micronuclear envelopes (protein, UniProt Q03252 1-617, looked up, mCherry fusion, mCherry-Lamin B2 overexpressed to stabilize micronuclear envelopes) Lamin-B2: MSPPSPGRRREQRRPRAAATMATPLPGRAGGPATPLSPTRLSRLQEKEELRELNDRLAHYIDRVRALELENDRLLLKISEKEEVTTREVSGIKALYESELADARRVLDETARERARLQIEIGKLRAELDEVNKSAKKREGELTVAQGRVKDLESLFHRSEVELAAALSDKRGLESDVAELRAQLAKAEDGHAVAKKQLEKETLMRVDLENRCQSLQEELDFRKSVFEEEVRETRRRHERRLVEVDSSRQQEYDFKMAQALEELRSQHDEQVRLYKLELEQTYQAKLDSAKLSSDQNDKAASAAREELKEARMRLESLSYQLSGLQKQASAAEDRIRELEEAMAGERDKFRKMLDAKEQEMTEMRDVMQQQLAEYQELLDVKLALDMEINAYRKLLEGEEERLKLSPSPSSRVTVSRATSSSSGSLSATGRLGRSKRKRLEVEEPLGSGPSVLGTGTGGSGGFHLAQQASASGSVSIEEIDLEGKFVQLKNNSDKDQSLGNWRIKRQVLEGEEIAYKFTPKYILRAGQMVTVWAAGAGVAHSPPSTLVWKGQSSWGTGESFRTVLVNADGEEVAMRTVKKSSVMRENENGEEEEEEAEFGEEDLFHQQGDPRTTSRGC |  |  |  | significantly diminished | 
4 | Dnase2: Dnase2 overexpressed using a pLenti-GIII-CMV-RFP-2A-Puro plasmid (protein, UniProt O00115 19-360, looked up) Deoxyribonuclease-2-alpha: CYGDSGQPVDWFVVYKLPALRGSGEAAQRGLQYKYLDESSGGWRDGRALINSPEGAVGRSLQPLYRSNTSQLAFLLYNDQPPQPSKAQDSSMRGHTKGVLLLDHDGGFWLVHSVPNFPPPASSAAYSWPHSACTYGQTLLCVSFPFAQFSKMGKQLTYTYPWVYNYQLEGIFAQEFPDLENVVKGHHVSQEPWNSSITLTSQAGAVFQSFAKFSKFGDDLYSGWLAAALGTNLQVQFWHKTVGILPSNCSDIWQVLNVNQIAFPGPAGPSFNSTEDHSKWCVSPKGPWTCVGDMNRNQGEEQRGGGTLCAQLPALWKAFQPLVKNYQPCNGMARKPSRAYKI |  |  |  |  | disappeared
5 | MCAK/Kif2c: kinesin-13 protein, human sequence SEQ ID NO:3 or 7, overexpressed in tumor cells (protein, listed as Homo sapiens) MAMDSSLQARLFPGLAIKIQRSNGLIHSANVRTVNLEKSCVSVEWAEGGATKGKEIDFDDVAAINPELLQLLPLHPKDNLPLQENVTIQKQKRRSVNSKIPAPKESLRSRSTRMSTVSELRITAQENDMEVELPAAANSRKQFSVPPAPTRPSCPAVAEIPLRMVSEEMEEQVHSIRGSSSANPVNSVRRKSCLVKEVEKMKNKREEKKAQNSEMRMKRAQEYDSSFPNWEFARMIKEFRATLECHPLTMTDPIEEHRICVCVRKRPLNKQELAKKEIDVISIPSKCLLLVHEPKLKVDLTKYLENQAFCFDFAFDETASNEVVYRFTARPLVQTIFEGGKATCFAYGQTGSGKTHTMGGDLSGKAQNASKGIYAMASRDVFLLKNQPCYRKLGLEVYVTFFEIYNGKLFDLLNKKAKLRVLEDGKQQVQVVGLQEHLVNSADDVIKMLDMGSACRTSGQTFANSNSSRSHACFQIILRAKGRMHGKFSLVDLAGNERGADTSSADRQTRMEGAEINKSLLALKECIRALGQNKAHTPFRESKLTQVLRDSFIGENSRTCMIATISPGISSCEYTLNTLRYADRVKELSPHSGPSGEQLIQMETEEMEACSNGALIPGNLSKEEEELSSQMSSFNEAMTQIRELEEKAMEELKEIIQQGPDWLELSEMTEQPDYDLETFVNKAESALAQQAKHFSALRDVIKALRLAMQLEEQASRQISSKKRPQ | significant suppression | significant suppression | most survival |  | 
